Laboratory results published in patent publication US20120083519.

Experiments:
[1] = tested on: T1, nephrin (co-expressed in HEK cells)
T1 sequence: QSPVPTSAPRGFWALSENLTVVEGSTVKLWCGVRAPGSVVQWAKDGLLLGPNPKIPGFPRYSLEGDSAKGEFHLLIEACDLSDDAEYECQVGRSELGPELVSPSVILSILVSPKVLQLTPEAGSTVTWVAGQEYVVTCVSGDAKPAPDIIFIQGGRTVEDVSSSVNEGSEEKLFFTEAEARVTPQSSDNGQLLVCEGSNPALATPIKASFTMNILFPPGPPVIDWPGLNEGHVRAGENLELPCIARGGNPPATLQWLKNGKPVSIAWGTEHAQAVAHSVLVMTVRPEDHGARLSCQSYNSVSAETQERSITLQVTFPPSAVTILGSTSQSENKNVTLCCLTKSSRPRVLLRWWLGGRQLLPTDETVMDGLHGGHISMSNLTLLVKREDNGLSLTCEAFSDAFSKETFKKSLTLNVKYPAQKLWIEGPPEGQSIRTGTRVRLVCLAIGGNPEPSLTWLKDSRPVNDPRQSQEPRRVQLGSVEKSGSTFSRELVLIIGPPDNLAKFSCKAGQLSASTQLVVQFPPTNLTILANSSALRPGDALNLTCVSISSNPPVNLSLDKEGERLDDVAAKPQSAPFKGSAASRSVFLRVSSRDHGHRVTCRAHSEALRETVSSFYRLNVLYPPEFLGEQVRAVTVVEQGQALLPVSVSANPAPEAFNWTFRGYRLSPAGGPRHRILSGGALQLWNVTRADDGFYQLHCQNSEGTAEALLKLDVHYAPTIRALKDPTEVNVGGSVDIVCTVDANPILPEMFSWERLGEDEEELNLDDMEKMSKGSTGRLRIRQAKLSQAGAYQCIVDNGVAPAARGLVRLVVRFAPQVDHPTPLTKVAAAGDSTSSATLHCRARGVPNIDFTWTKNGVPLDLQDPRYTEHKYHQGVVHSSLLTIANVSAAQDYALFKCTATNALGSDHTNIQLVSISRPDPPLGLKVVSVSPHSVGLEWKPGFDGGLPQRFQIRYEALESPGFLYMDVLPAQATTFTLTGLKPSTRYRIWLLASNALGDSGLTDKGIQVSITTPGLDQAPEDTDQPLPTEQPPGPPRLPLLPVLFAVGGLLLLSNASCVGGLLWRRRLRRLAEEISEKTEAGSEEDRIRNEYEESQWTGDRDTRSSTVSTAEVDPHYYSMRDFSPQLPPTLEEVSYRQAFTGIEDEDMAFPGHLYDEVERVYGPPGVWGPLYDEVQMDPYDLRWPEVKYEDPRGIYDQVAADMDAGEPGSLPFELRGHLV

[2] = tested on: C-mip protein (c-maf inducing protein), human, full-length
Sequence of C-mip protein (c-maf inducing protein), human, full-length (chain, as listed by the source): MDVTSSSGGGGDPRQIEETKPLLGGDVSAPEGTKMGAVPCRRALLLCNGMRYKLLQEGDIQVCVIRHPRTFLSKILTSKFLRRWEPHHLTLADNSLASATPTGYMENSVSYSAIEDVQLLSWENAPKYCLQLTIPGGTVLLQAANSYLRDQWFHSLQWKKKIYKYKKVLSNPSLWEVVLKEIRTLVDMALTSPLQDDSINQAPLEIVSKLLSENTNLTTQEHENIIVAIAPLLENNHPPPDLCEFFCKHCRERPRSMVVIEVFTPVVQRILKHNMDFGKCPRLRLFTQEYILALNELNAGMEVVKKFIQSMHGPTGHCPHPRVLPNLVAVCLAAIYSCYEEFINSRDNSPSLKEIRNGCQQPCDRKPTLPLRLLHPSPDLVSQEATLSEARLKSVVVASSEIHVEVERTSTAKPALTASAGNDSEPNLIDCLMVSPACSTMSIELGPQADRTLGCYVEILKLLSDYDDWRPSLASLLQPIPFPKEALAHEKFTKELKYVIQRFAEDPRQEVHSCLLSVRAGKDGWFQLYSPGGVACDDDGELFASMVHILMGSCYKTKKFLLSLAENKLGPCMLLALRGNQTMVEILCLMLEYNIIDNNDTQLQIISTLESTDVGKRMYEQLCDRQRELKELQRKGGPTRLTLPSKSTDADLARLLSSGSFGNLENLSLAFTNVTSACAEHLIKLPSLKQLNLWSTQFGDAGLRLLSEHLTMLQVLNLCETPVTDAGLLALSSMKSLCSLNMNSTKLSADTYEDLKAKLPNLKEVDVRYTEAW

Substance: Fyn (expressed from Fyn plasmid in HEK 293 cells)
- phosphorylation of nephrin at tyrosine residue Y1208 [1]: Co-expression of nephrin and Fyn induced phosphorylation of nephrin at tyrosine residue Y1208
- phosphorylation of nephrin by Fyn at Y1208 [2]: co-expression of c-mip reduced the phosphorylation of nephrin by Fyn at this tyrosine residue
